Positions count from the first letter of the chain named.
Legend:
[1] = target: T1, variant nuclease L38G combination (P14R, D32R, I61R, E311R, L38G); assay: cell_activity; PAM 5'-TTTG-3'; details: tags: pcDNA3.1 expression
T1 chain: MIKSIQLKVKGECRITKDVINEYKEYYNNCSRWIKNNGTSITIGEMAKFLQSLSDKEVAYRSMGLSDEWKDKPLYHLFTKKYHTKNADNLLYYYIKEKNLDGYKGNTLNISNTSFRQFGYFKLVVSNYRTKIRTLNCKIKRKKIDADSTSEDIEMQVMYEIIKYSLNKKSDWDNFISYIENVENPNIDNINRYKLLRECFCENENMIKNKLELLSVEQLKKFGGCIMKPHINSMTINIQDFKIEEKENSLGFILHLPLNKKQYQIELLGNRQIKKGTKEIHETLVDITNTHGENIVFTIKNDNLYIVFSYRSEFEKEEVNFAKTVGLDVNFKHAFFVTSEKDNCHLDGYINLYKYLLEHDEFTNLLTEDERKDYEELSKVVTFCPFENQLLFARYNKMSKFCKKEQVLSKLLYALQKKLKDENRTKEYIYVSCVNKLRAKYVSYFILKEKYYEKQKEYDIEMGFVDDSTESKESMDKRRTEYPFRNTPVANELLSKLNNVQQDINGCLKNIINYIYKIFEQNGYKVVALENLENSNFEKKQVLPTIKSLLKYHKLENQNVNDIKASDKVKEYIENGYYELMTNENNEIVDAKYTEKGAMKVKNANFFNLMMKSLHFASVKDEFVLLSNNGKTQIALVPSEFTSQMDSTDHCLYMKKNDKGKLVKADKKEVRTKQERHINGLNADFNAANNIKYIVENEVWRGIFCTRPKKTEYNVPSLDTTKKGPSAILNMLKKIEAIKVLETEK
Method in brief: (§1)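 HEK293T cells were lipofected with nuclease plasmid (pcDNA3.1 backbone) plus RNA guide plasmid, with guide omitted in negative controls. After ~72 h cells were lysed in QuickExtract and % indels were derived from NGS reads, averaged over two bioreplicates and two technical replicates.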

[2] = target: T2, variant nuclease K35G combination (P14R, D32R, I61R, E311R, K35G); assay: cell_activity; PAM 5'-TTTG-3'; details: tags: pcDNA3.1 expression
T2 chain: T1 chain with K35G, G38L
Method in brief: as §1

B1: AAVS1 crRNA ; AAVS1 target (ssRNA ; dsDNA)
RNA: CUUGUUGUAUAUGUCCUUUUAUAGGUAUUAAACAACUGAGAAUGGUGCGUCCUAGG
DNA 1: TGAGAATGGTGCGTCCTAGG
DNA 2: CCTAGGACGCACCATTCTCA
- indel activity [1]: 1.28 fold of WT
- indel activity [2]: 5.66 fold of WT

— patent US20240035010, “COMPOSITIONS COMPRISING A VARIANT POLYPEPTIDE AND USES THEREOF” (Arbor Biotechnologies, Inc., published 2024)
